Assays:
His-tagged CEACAM1 = biological target: T1, His-tagged CEACAM1 (human, UniProt P13688 35-428); assay: SPR multi-cycle
T1 construct: 45 kDa SPR analyte; also called CEACAM1-HIS; CEACAM1 analyte
T1 sequence: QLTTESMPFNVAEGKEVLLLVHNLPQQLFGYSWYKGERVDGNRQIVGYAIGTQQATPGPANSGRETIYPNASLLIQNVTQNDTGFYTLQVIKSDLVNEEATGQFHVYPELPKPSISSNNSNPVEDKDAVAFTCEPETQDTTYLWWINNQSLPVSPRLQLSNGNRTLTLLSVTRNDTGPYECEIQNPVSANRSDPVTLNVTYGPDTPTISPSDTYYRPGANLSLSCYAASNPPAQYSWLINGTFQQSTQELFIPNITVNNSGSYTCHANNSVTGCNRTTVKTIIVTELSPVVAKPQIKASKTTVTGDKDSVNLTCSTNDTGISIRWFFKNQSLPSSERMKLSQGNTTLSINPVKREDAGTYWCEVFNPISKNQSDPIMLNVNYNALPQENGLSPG
In short: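 Surface plasmon resonance multi-cycle kinetics on a Biacore T200 at 25° C in HBS-P+ (pH 7.4). Purified antibody at 1 μg/ml was captured on a Series S Protein A chip to ~75 RU, with His-tagged CEACAM1 analyte in 2-fold dilutions from 200 to 3.125 nM or 100 to 1.5625 nM at 80 μl/min. Association was 50 or 150 seconds and dissociation 100 seconds, with glycine-HCl pH 1.5 regeneration. Kon, koff, Kd and relative KD come from these sensorgrams.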

[1] = biological target: T2, CEACAM1 on transfected HeLa cells (human, UniProt P13688 35-526); assay: flow cytometry, transfected HeLa
T2 construct: also called HeLa-CEACAM1; HeLa C1
T2 sequence: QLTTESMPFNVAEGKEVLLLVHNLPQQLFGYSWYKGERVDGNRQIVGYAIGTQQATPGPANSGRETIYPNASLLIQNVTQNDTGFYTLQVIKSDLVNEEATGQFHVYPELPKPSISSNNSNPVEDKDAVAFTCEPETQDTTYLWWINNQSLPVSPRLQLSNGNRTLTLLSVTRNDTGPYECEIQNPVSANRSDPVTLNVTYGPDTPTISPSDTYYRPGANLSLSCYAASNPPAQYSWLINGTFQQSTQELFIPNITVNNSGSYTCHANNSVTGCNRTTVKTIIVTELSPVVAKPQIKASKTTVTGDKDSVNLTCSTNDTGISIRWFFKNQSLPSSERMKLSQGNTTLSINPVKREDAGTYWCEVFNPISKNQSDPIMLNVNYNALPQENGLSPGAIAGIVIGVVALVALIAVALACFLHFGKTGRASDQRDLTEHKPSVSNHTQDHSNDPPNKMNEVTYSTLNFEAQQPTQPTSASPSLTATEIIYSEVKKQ

[2] = biological target: T3, CEACAM5 on transfected HeLa cells (human, UniProt P06731 35-685); assay: flow cytometry, transfected HeLa
T3 construct: whole, on cells; also called HeLa-CEACAM5; HeLa C5
T3 sequence (looked up): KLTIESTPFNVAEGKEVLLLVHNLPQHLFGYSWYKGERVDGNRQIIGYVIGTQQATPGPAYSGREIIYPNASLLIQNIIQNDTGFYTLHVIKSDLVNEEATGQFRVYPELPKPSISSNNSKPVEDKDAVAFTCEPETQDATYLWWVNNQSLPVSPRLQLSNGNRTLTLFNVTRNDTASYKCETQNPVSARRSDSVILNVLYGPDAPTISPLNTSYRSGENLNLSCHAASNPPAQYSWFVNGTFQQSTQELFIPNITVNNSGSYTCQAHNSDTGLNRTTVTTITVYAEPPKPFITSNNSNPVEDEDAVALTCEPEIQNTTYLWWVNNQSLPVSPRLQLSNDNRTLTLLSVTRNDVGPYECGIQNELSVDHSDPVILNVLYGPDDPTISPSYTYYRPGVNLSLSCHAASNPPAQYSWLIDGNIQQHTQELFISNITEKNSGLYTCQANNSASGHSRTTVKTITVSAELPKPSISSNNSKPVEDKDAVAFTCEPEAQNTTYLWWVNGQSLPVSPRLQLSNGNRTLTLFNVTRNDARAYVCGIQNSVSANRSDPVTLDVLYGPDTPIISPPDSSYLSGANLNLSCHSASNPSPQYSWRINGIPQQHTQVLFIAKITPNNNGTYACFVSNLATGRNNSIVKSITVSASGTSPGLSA

[3] = biological target: T4, CEACAM6 on transfected HeLa cells (human, UniProt P40199 35-320); assay: flow cytometry, transfected HeLa
T4 construct: whole, on cells; also called HeLa-CEACAM6; HeLa C6
T4 sequence (looked up): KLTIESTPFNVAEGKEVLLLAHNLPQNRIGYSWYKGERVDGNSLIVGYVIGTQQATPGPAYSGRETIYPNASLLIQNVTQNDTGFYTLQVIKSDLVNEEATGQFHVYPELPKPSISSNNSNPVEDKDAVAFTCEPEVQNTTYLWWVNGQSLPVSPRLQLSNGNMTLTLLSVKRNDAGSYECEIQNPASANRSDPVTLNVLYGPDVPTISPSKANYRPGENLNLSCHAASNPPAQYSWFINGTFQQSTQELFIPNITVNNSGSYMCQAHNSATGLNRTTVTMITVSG

GST-CEACAM1 [4] = biological target: T5, GST-CEACAM1 (human, UniProt P13688 35-141, limits assumed); assay: competition ELISA vs parental murine antibody
T5 construct: also called human CEACAM1-GST protein
T5 sequence: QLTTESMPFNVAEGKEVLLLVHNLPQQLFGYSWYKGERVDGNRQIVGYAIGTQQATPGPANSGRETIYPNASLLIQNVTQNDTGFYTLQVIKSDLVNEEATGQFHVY
Description: The binding of the purified antibodies to human CEACAM1 was assessed in a competition ELISA assay. Nunc Immuno MaxiSorp 96 well flat bottom microtitre plates were pre-coated with 1 μg/ml of GST-CEACAM1 in 1×PBS, overnight at 4° C. The following day the plates were blocked for 1 hour at room temperature (“RT”) with 2% BSA/PBS before washing 3× with PBST pH 7.4. A 3-fold dilution series of the chimeric antibody chimeric antibody VH0/Vκ0, an irrelevant IgG4 antibody, and the humanized CEACAM1 antibodies from 100 μg/ml to 0.07 or 0.002 μg/ml were pre-mixed with a constant concentration of parental murine antibody (0.45 μg/ml final concentration), added to the plate and incubated for 1 hour at room temperature. Following 3×PBST washes, the binding of the parental murine CEACAM1 antibody was detected with an anti-mouse-HRP and TMB substrate. The reaction was stopped with 3 M HCl, absorbance read at 450 nm on a Dynex Technologies MRX TC II plate reader and the binding curves plotted. The binding of the humanized CEACAM antibody variants to CEACAM1 was compared to the chimeric antibody (VHO/Vκ0), which was included on each plate.

GST-CEACAM1 [5] = biological target: T5, GST-CEACAM1; assay: competition ELISA vs parental murine antibody, experiment 1
GST-CEACAM1 [6] = biological target: T5, GST-CEACAM1; assay: competition ELISA vs parental murine antibody, experiment 2

Kd (His-tagged CEACAM1): 110 nM
koff (His-tagged CEACAM1): 0.0277 s⁻¹
kon (His-tagged CEACAM1): 251000 M⁻¹ s⁻¹
relative KD (His-tagged CEACAM1): 1.05
relative amount of cells bound [1]: 77.9
relative amount of cells bound [2]: 9.82
relative amount of cells bound [3]: 0
average relative IC50 (GST-CEACAM1 [4]): 0.84
relative IC50 (GST-CEACAM1 [5]): 0.96
relative IC50 (GST-CEACAM1 [6]): 0.72
B1: VH0/Vκ0 S29A (antibody, IgG4, V domains shown)
VH: EVQLVESGGDLVKPGGSLKLACAASGFIFSSHGMSWVRQTPDKRLEWVATISSGGTYTYYPDSVKGRFTISRDNDKNTLYLQMNSLKSEDTAMYYCARHDFDYDAAWFAYWGQGTLVTVSS
VL: QIVLTQSPALMSASPGVKVTMTCSANSAVSYMYWYRQKPRSSPKPWIYLTSNLASGVPARFSGSGSGTSYSLTISSMEAEDAATYYCQQWSSNPPTFGSGTKLEIK
notes: aglycosylated chimeric, IgG4 (S241P), kappa
